Data published in publication PMC11910092, “Modulating the complement system through epitope-specific inhibition by complement C3 inhibitors” (The Journal of Biological Chemistry, 2025).

What was measured:
Assay in all cases: ELISA; plate coated with 2 ug/ml C3, C3b or recombinant C345C domain overnight at 4 °C; MI3 dilution series in PBST, 37 °C, 1 h; detected with HRP anti-His antibody (HRP anti-VHH antibody for the C345C domain)
Conditions in all cases: both partners purified
[1] = molecular target: T1, complement C3b (Homo sapiens (plasma-derived), UniProt P01024)
T1 construct: Bought protein; source: bought: Complement Technology (cat#A114)
T1 sequence (P01024 23-667): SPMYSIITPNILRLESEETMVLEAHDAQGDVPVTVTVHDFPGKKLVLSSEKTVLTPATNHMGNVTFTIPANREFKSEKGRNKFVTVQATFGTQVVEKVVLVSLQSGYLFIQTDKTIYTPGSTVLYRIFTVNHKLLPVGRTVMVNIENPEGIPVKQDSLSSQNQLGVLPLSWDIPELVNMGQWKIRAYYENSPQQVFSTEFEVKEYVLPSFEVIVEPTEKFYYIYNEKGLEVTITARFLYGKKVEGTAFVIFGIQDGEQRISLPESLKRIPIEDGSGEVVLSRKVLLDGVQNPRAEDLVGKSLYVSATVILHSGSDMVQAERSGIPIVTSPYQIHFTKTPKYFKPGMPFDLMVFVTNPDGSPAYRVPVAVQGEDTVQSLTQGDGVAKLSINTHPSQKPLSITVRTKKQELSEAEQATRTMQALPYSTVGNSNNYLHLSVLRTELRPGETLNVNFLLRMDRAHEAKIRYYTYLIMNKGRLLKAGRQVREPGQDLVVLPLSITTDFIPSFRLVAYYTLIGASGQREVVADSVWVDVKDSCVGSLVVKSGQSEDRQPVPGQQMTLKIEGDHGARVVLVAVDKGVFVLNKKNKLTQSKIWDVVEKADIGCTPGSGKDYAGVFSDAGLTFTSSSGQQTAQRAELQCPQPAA

[2] = molecular target: T2, recombinant C345C domain of C3 and C3b (Homo sapiens)
T2 construct: C345C domain of complement C3; also called C345C domain (recombinant expression); source: HEK293-F, transfected (pCDNA3.1(+)), secreted, purified (Ni-NTA agarose, anion exchange GigaCap Q-650M)
T2 chain: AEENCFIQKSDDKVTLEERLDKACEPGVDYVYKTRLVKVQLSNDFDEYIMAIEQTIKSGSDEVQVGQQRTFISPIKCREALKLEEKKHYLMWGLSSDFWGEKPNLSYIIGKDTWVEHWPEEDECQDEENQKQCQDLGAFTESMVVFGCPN

[3] = molecular target: T3, complement C3 (Homo sapiens (plasma-derived), UniProt P01024)
T3 construct: Bought protein; it works with normal human serum and anti-human detection antibodies; source: bought: Complement Technology (cat#A113)
T3 sequence (P01024 23-667): as the sequence (P01024 23-667) above

B1: MI3 (nanobody) (VHH)
VHH: DVQLQESGGGLVQPGGSLRLSCVASGSTFSTYHMGWYRQAPGKQRELIAGITSGGRISYVDSVKGRFNISRDNAKNTVYLQMNTLKPEDTAVYYCNMLGEFAGRPPWGQGTQVTVSS
notes: proprietary nanobody; Provided by Quaerite Biopharm Research; source: HEK293-F, transfected (pCDNA3.1(+)), secreted, purified (Ni-NTA agarose, ion exchange GigaCap Q-650S); not shown: 6xHis (after a GGGGS linker), C-terminal, kept
EC50 [1]: 0.14 nM
EC50 [2]: 0.19 nM
EC50 [3]: 0.17 nM
